B1: unnamed (parent)
chain 1: MASMGLQVMGIALAVLGWLAVMLCCALPMWRVTAFIGSNIVTSQTIWEGLWMNCVVQSTGQMQCKVYDSLLALPQDLQAARALVIISIIVAALGVLLSVVGGKCTNCLEDESAKAKTMIVAGVVFLLAGLMVIVPVSWTAHNIIQDFYNPLVASGQKREMGASLYVGWAASGLLLLGGGLLCCNCPPRTDKPYSAKYSAARSAAASNYV
chain 2: RCVLTVPSTDIEKEILDLAAATERLNLTDALNSNPAGNLYDWRSSNSYPWTQKLNLHLTITATGQKYRILASKIVDFNIYSNNFNNLVKLEQSLGDGVKDHYVDISLDAGQYVLVMKANSSYSGNYPYSILFQKF

Variants of: B1
Experiment: pull-down
Conditions: with partner chain of the complex shown; n = 4; parent: 1; read off a plot
For chain 1 MASMGLQVMGIALAVLGWLAVMLCCALPMWRVTAFIGSNAVTSQTIWEGLWMNCVVQSTGQMQCKVYDSLLALPQDLQAARALVIISIIVAALGVLLSVVGGKCTNCLEDESAKAKTMIVAGVVFLLAGLMVIVPVSWTAHNIIQDFYNPLVASGQKREMGASLYVGWAASGLLLLGGGLLCCNCPPRTDKPYSAKYSAARSAAASNYV [chain 1 I40A], the ratio to parent was 1.1. chain 1 MASMGLQVMGIALAVLGWLAVMLCCALPMWRVTAFIGSNDVTSQTIWEGLWMNCVVQSTGQMQCKVYDSLLALPQDLQAARALVIISIIVAALGVLLSVVGGKCTNCLEDESAKAKTMIVAGVVFLLAGLMVIVPVSWTAHNIIQDFYNPLVASGQKREMGASLYVGWAASGLLLLGGGLLCCNCPPRTDKPYSAKYSAARSAAASNYV [chain 1 I40D] gave a ratio to parent of 0.21.

Source: article PMC5028891 (Scientific Reports, 2016)
